Assay results: patent US20240175001A1

Biological target: SNAP-25 (rat) (UniProt P60881)
Test: cell-based or functional assay

Sequence of UniProt P60881 (P60881 whole entry): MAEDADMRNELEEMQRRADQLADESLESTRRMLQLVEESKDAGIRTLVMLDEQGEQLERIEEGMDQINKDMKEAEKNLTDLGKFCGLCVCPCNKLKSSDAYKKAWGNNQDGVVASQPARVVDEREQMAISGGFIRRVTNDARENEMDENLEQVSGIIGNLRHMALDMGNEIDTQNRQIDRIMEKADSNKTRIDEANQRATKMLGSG

## native BoNT/A1 (LIST)
  pEC50 (percentage SNAP-25 cleavage in rat eSCN, 24 h, Western blot): 12.3
